The values below come from patent publication US20250002557A1.

In this test the target is T1, PDGF-CC, Q9NRA1.
T1 chain: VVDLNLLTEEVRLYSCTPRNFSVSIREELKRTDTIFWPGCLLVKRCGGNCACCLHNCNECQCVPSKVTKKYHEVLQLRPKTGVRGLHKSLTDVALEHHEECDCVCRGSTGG
Nature of the test: SPR, PDGF coupled to CM5 chip, VEGFR2-Fc in flow. Particulars: remark: other sources report otherwise.

B1: VEGFR2-Fc (Met1-Glu764), P35968 20-764 (Fc fusion, not shown: a dimerising Fc or GST)
chain: ASVGLPSVSLDLPRLSIQKDILTIKANTTLQITCRGQRDLDWLWPNNQSGSEQRVEVTECSDGLFCKTLTIPKVIGNDTGAYKCFYRETDLASVIYVYVQDYRSPFIASVSDQHGVVYITENKNKTVVIPCLGSISNLNVSLCARYPEKRFVPDGNRISWDSKKGFTIPSYMISYAGMVFCEAKINDESYQSIMYIVVVVGYRIYDVVLSPSHGIELSVGEKLVLNCTARTELNVGIDFNWEYPSSKHQHKKLVNRDLKTQSGSEMKKFLSTLTIDGVTRSDQGLYTCAASSGLMTKKNSTFVRVHEKPFVAFGSGMESLVEATVGERVRIPAKYLGYPPPEIKWYKNGIPLESNHTIKAGHVLTIMEVSERDTGNYTVILTNPISKEKQSHVVSLVVYVPPQIGEKSLISPVDSYQYGTTQTLTCTVYAIPPPHHIHWYWQLEEECANEPSQAVSVTNPYPCEEWRSVEDFQGGNKIEVNKNQFALIEGKNKTVSTLVIQAANVSALYKCEAVNKVGRGERVISFHVTRGPEITLQPDMQPTEQESVSLWCTADRSTFENLTWYKLGPQPLPIHVGELPTPVCKNLDTLWKLNATMFSNSTNDILIMELKNASLQDQGDYVCLAQDRKTKKRHCVVRQLTVLERVAPTITGNLENQTTSIGESIEVSCTASGNPPPQIMWFKDNETLVEDSGIVLKDGNRNLTIRRVRKEDEGLYTCQACSVLGCAKVEAFFIIEGAQEKTNLE
As usually defined, the Kd is a measure of binding affinity in units of concentration. The low end stands for tighter binding, the high end for weaker binding. For the molecule B1, the Kd worked out at 73.6 nM.
